The values that follow come from the NTF2 design screens of Basanta et al. (2020).

The nature of the series: protease stability score; higher = more stable; yeast display proteolysis, trypsin and chymotrypsin.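 Further: log10 excess protease needed over predicted unfolded state with 0 meaning unfolded.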

For “DEENQRLAEEFIRAFEKGNPDQAATMADPNVKIDIGEKRIHGHEELKKWIEELQRQMRVEVEHYEVEADGDKVIARLIFRQEHNGKPQEDKEQVNIRFHNGRAKSVTIRSTK”, the protease stability score amounted to 0.028.
As for “DEENREVAERWLDALKRGDPKKANEQMDPNARLRVGNKTVHGREDFEQMIRKWQEHMSFSVETMTVQVEGNKIIIKATREVVVNGRPHKDTFEFEIEIQNGKIKEITIHFPEQELKEIED”, the figure is 0.815; as for “DEENREVMERFVQAFNRNNPDQLNTNADPNAKFVIGDKTINGRERMKKWQEEQNTHMRQHLEVTSISVHGNSITARVRMQFQVNGQPQEVDLTLHATIHNGQIKQLTFNLDKDEKKQIDK”, -0.133; as for “DEENRHAAEQYLTALRTGDEEQLKKNADPNVRVQVGDKQWTGMERYAHDQVRQLKEIHIEIKVDDIKVSNGEVDMKAERNSNHNGKPSRNRASLTIVVHNGKIQEIHWQEDS”, -0.47.
With “DEENRHQINEMWKQIQTNNPDEVMKQLDKDVQVVVGDKQIRGREEFAKHVEQLLREMDVEYHSIKVKVHNGEAHVKVRHTVDVNGKPREDTLDVQLQMKNGHVKHFELRIDEDKLEKLKR” the figure was -0.169; with “DEENRHVAQELVKAEKSGDPKRAQELLDPNVRINVGDKTVQGREQHTQELEREKRELRIRIKSMHLKVEGDHVRIEATVSKTQDGQPRESKRSISIHMKNGKAKNIQVTYHK”, 0.13; with “DEENRKDAEKYMKVTENNNPDEVSKLVDPNAKLEIGDKTYHGDEWMMDQQQQDRDQARIEVKRVDIKVHNGQINARVRFVKEENGKPDRRDVDIKMNIHNGRLKRAQFKHTE”, 0.064.
With “DEENRKIAKKLVEAMHTNDEETLEKMFDPNVRFDVGDREVHGKEQWKREQHKKNREARFEIQRYTISYEGDKAVVRIHQVEDHNGQPREDTYVMHVEVHNGKVKRVVQRKDS”, the protease stability score was -0.129.
With “DEENRKILSEVLQALQEGDEHRVRELMDPNARFQVGDKVITGMDNIKKHLQELKRQIKWHFTMKSISAHDGQARATADAEYNHNGRPQDVRVTFRVVFHNGEVHHFSYDYKP” the figure was 0.583; with “DEENRKQFEEIVRVWNKGDEKRFNNLFDPNARFRYGDKEYKGNQSLMNWWRHLKKQARVEIDVKEVHVDGDKVHAHFRVTFDINGRPETQDVDVVLTVQNGRAKNFDNRIDPEFMRRVQS”, 0.141; with “DEENRKVFEEILEAKKRGDPKQLERNVDPNVKIYYGDKDFHGRSQLSKELEKVRRELHLHLDFKRIEYHGDSVDVELKVNQQHNGKPDESDRVFHARLHNGRLEHVDARDRK”, -0.019.
“DEENRQLAENFLTAMEDNNPEHLSELADPNAKFHYGNKRIHGREKFMHEVEHRNKRIRYSIKSYKITVSGDKIEIDLTFTFRHNGQPDERRRTIHMQMENGQIRSVEYNDNK” registered a protease stability score of 0.337.
For the sequence “DEENRRNFERLIEAIRTNNPSDVEQLVDPNVRFQVGNEVYNGREQFSKDVERLNRQINITIHVRRLHVHGEKVVVDFTYQQEVNGRPNSHRVKWDATLENGKIKSARNTFDEEFEKELTK”, the protease stability score was -0.091.
With “DEENSEAMKRWFNAMETGDPDKVKEQLDENAKIEVGDKRIHGRDQAREEVRKMLERWEIRIKIDEIDVHGEKVVVKFRQHNDRNGEPDNQTVVFIAIFDNGKATRWLLTTDG” the figure was 0.289; with “DEENSKVYEEWLKAVHNGDPDQVRRQIDPNVKINVGEFDLKGRETVAEHVKKMKDEAHVDQDIHSIEIQGDKVRVDAQYSAEINGKPTSNHLDASVNVKNGQIKRVDVEFSK”, -0.131; with “DEENSRILKELLRAIRRGDEERAKELVDPNAKFQVGNKNVHGRDHWAQELRKEKEKIRFDMHIKHVKVDNGKIKVDLRVQVDVDGRPVTNRVKLTVELHNGRLTHLRVEMDEDQERKLKK”, 0.366.
As for “DEENTKVAHEWLRNLERNDPKKLNELADPNAHFNVGDKQVQGMDEFERRIEDKKKEMRMKIDDYKARVHNGHVRVDVIVVIDHNGKPDKKRNVQFFDMENGRISRINQQDTG”, the figure is -0.164; as for “DEENVDRAERLLDALRSGNPNTVRELMDKHVKIQIGDKHLHGREQADKKAEDDSKEINEEVKSVDVKATGNNVVIDMDVSATVDGRPVTFHRVLVIRMHNGKIQEIEIRMSEDDIRNYKK”, 0.207.
As for “DEENVDRMEEIIRSGDFKELLELADPNVKVVVGDKEYSGRHVATTVLQSLYEQVDHHKVHSVQNEGETVEFDLKVVVNGQEMRMRFVIVFENGRIKTIQIEFTDPRQEEKFLKNIK”, the figure is 1.08.
“DEENVEAAHRFFEALNTNNPDELVKQFDPNARFRYGDTDIHGREHFRKWVKDQLDQIRFTLTSMTANVHNGKVRIELRFIKHHNGRPRDVNQEVRADVHNGKIKNLSVSDRG” showed a protease stability score of 0.563.
Turning to “DEENVKIARELLKNRTSGNEEHFKRLVDPNARFNVGDTRIHGREEYVKQVRDDFRNSRESIDVRSVSASGDKVEVDMKMHFEHNGQPRSKKVILDAKIHNGRLKEYRVEEEK”, the protease stability score was -0.045.
With “DEENVKIFEEFLRAEQTNDPERAKELIDKDVRIRVGDKTYHGREEWVNTFEEQQRHLKVHYKHVDNTHRNGRVHVRMTFDAVTNGEPKEVTARVEAEFHNGKAKDIQVEYRG” the figure was -0.257; with “DEENVKKVQEQLERNDREKLKSNVDKNAEVRVGDKTYHGREDAKTVLEQLARQVDNMQWQSIRIKGEHIDAKMVVQINGKHIQVSIELTVHNGKISHFVIHARNEEVNETLKEAVD”, 0.516.
As for “DEENVKQAKKFADAMRHGDPEKLAKLADENAKLVIGDKTVHGRDDLRRERKKLNEHSRQHVDVKSIEAENGRVDVTASMTLSHNGKPDQVHVKIHMRITNGQIEEVHVNYKP”, the figure is -0.492; as for “DEENVKQVERQFKQRDEGNEERVVDQADENASINIGDKRYHGMTDAAKKLVTRLKEIRFERRVVSVTMHNGKFDANYEQTQNTNGNPRTFRYKLVIHMKNGRVKSAHIQEDG”, 0.062; as for “DEENVKVMEHWNKATSNNDEDKHRELADENANFNIGDKRIHGREDFVRWVQELKNRLRIKVEVNSIQAQGDKVTVHYKLKQETNGEPDTRNVKATARIQNGRVRSLTVKDNQ”, -0.116.
With “DEENVRLARHYADAEARGDHDTIVELLDPNAKVDVGDHEVTGDEHVREELKKKHNQWRAELKDVKASVRGDKLRLKITFVVHINGRPSEQTIDARADIKDGRFKSFSVTIDPQEERHNES” the figure was 0.395; with “DEEQAHRLNEVLKTGDFERLKDQADPNVRIEVGEKRYHGREQFQKFMTIVQETVDDVHVRSIKVRGDTVNVHMVLNVNGVKAEFIVEAHVDDGRVKEIRFRATDDEQKKNWRKIVQ”, 1.11; with “DEEQAKKMEHDAKNNNFEKMAEQADPNATAQYGDHRVRGRHEVIDLITHWIEKIDRIEVDSIRVHNGRLEMHFTFEVDGVQVDVVMKAELQNGSLKVLVVTATSEEQQKRLKQAEG”, 0.234.
The sequence “DEEQAKSMVHNMRQNNFEELDKLVDENVRVTVGNKKLHGREEYQKWLENWKKQADRITWDSIDVHGEKIDVEFRAVVNGRTVKQKVDIQFHNGRIKTARYQVTNEELDKIMKEMVE” had a protease stability score of 0.866.
With “DEEQAKTIMEKWQKAVQTNNDELADKLYKPNVEWENGDEQRQGKEVVVKMLQKAQKKGVEFQVRKAKVEGDRVEMVYDVRIGDQTVTFTVRMDVHGGRVERVKAEASDEVKKALKKG” the figure was 0.444; with “DEEQAKTVMEEWAKAVQKGNTEKLKKLYKPDVEWKNGDKKNQGVDQVETQVKKAKDQGVEFQVRKAEVKGNRVRVVYDAKVGDKTVTFTVEFDVDGGKIERVRVEVDEEAKKVQKQG”, 0.322.
As to “DEEQARRFREFMEVVRQGDEEKIKRYVDPNARVEVGEETLHGREDIAEWWQKVVRQIRVDITITKMSVSNGKLEIHARAQYEHNGTPEDNRQVIVIQWHNGVAKTIRMEKDG”, the protease stability score turned out to be 0.653.
In turn, “DEEQDARRIAELLDKVFRNNDEDQFMRLMDPNAEVVVGDKTYRGREQARSAMSEIVKHFDHVHLKLDSFSNHNGRVTASNTLHADSNGKKRKVKVTIHFDVKGDKAVIKHLTIE” registered a protease stability score of 0.866.
With “DEEQEARDQIKKYLDIFRTGDPDQAKKLFDKDAEVRIGDKHVRGREQISDFFKKLLHKADHVEYTIQDYDVHGDKVTVHLTVVINVNGDERRNTMVIVIKVQGEKERVQSVRVG” the figure was 1.09.
With “DEEQEKHVSHYLELQKHGNEDELLRTVDPNATATVGDKEYHGMKHVAHHLVNTLKRINVKIDRLDLKVEGNTARIDQVRVQKTNGKPDRYRLKQTVQFHNGRFKRVTADVRR” the figure was -0.14.
Regarding “DEEQEKTIHRAHKHNDEDSFRKLFDKDATMQIGNKTFHGREEVETAVTQWHTQVDHLRVDHMRVTNGKLQIDFTAVINGQRIELRVKIKANNGKVKSVKIQARSEEDNEHLKKELD”, the protease stability score amounted to 0.407.
As to “DEEQHNFANKVWEAITKGDPDEIRRLFDENVRVKVGNKTITGREELSETMEKIKKHLRMRVQVDEIEFDGDQIRVHFTANLNVNGRPVEYRAELIMHVHDGRVKHMHLRVPEQVERELEK”, the protease stability score was 1.05.
With “DEEQHSVADQFNRDLRQGDPDTIRKLLDKDADLRVGDKDLHGRENLIDHMRKMHKKMQVNVDVDSVEDHNGKVIIQATVVEHHNGKPKTYQVDARLHADNGKIKNADFQETS” the figure was -0.115.
As for “DEEQIKDLLERLMRAQQHGDPDRMANYLDENVRVRIGEKDISGREQYKDWNQEQVERIDHFQVHHIEVQGDKAKIDMEMKVDGKRFRFTVRMHIRDGRIDEFRFDPTVQRKIET”, the figure is 0.97.
As to “DEEQIVNRLWTEAQKNWEEGNETEIANQFDPNARVNVGEKDYHGTEQIMKWVKEILRHADSVRYSIDSIDVNGDTVYVHFTMVMRHNGQKESERIIATMKVDNGEARFTDIKQG”, the protease stability score is 0.737.
As for “DEEQKKHVKEMIEAERTGNEEQARKLVDEDVRANYGDHEVHGRETLRKHVRDVKREWSVQIDDVKLRVHNGRVQMHFDFVRDENGRPEKMTATATAEAHNGKIKEINRQDHK”, the figure is -0.204; as for “DEEQLDLNRRWMTALKTNNPDDAINLIDPNAKVHVGDKTLSGRENIKTYLKHLIHESRFRFRVQSMNAKNGQVDVSVKQTQSHNGQPSTNRIVVRMEVENGTITSNTIDSKS”, -0.073; as for “DEEQLKEYTKEMEHNDEEQFSRMMDKDARVIVGDKTFTGREDAATMLLLIRRRVDHIEIRKITIQGDHVVVHQVVQVNGKEAEFEREVHVKNGHIKEVHIQARDEDDERVLHQAMD”, 0.468.
In turn, “DEEQLKHVAEQLRRLWENNDENQIAQLMDENVEVQVGDKTLHGRDDVRKWAQDLRKSADHVKVHSIRNRGDKVQMDFVVENNGRQTKMEVIAHVHNGRIKSLKLRTK” returned a protease stability score of 1.16.
On to “DEEQLKKVVEKLLQAIQNGNLDEIKKMLKDDVTFVLGDKTFRGVEQAVKIVKQLVDKGAEFHVERLEVKGDQAHVKTYWHAGDKTMELTVTYNVRDDKVEKVQADWSEEVKKARKHD”, for which the protease stability score came out at 0.985.
With “DEEQLKMARELFEIMHTGDPDQLKEQFPPDAHFNIGDKRVSGMTEFARQVENEHKEQRRSIDIKSMDVNSPHVTIQARFEVEHNGQPHTSTATIQFQFQNGRFLNMRVQSHQ” the figure was -0.106.
